Numbered stars: 1 amine (or outer) side, 2 acyl side, 3 side chain; on linkers, the order of the positions; unused ones are H or OH. Bridge positions count the residues as written; N and C are the ends. Square brackets hold non-standard residues; d marks the D form. * marks the point of attachment. C20 diacid = O=C(O)CCCCCCCCCCCCCCCCCCC(=O)*; γGlu = O=C(O)[C@H](CCC(=O)[*:2])N[*:1]; 4Pal = N[C@@H](Cc1ccncc1)C(=O)O
T1: rat NPRA (rat, UniProt P18910 29-1057)
T1 sequence (looked up): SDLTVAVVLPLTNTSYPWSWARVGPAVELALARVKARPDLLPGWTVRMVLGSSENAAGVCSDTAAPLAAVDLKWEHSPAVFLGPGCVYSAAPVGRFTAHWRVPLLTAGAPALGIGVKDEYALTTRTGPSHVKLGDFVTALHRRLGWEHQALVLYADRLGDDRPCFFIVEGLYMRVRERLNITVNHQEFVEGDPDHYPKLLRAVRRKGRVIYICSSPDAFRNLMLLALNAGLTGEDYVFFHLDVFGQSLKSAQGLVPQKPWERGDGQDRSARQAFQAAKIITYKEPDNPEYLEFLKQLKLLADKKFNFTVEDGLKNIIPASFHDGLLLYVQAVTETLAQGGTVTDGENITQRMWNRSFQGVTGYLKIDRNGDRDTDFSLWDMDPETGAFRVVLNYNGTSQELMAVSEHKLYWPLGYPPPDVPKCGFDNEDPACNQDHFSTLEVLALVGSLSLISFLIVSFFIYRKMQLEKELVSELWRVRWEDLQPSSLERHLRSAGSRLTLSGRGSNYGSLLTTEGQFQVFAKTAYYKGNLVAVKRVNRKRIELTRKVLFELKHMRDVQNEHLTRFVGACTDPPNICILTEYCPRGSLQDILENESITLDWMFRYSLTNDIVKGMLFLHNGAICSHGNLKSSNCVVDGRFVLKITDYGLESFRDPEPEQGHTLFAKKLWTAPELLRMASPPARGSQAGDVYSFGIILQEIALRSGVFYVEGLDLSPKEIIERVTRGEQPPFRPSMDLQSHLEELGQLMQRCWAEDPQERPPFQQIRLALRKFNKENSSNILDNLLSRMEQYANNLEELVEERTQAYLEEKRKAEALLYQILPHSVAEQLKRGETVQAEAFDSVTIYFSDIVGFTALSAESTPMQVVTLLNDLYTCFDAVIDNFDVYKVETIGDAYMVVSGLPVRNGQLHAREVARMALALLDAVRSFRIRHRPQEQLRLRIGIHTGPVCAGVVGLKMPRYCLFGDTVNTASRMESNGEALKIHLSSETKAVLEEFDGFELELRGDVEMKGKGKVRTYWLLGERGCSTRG

T2: human NPRA (human, UniProt P16066 33-1061)
T2 sequence (looked up): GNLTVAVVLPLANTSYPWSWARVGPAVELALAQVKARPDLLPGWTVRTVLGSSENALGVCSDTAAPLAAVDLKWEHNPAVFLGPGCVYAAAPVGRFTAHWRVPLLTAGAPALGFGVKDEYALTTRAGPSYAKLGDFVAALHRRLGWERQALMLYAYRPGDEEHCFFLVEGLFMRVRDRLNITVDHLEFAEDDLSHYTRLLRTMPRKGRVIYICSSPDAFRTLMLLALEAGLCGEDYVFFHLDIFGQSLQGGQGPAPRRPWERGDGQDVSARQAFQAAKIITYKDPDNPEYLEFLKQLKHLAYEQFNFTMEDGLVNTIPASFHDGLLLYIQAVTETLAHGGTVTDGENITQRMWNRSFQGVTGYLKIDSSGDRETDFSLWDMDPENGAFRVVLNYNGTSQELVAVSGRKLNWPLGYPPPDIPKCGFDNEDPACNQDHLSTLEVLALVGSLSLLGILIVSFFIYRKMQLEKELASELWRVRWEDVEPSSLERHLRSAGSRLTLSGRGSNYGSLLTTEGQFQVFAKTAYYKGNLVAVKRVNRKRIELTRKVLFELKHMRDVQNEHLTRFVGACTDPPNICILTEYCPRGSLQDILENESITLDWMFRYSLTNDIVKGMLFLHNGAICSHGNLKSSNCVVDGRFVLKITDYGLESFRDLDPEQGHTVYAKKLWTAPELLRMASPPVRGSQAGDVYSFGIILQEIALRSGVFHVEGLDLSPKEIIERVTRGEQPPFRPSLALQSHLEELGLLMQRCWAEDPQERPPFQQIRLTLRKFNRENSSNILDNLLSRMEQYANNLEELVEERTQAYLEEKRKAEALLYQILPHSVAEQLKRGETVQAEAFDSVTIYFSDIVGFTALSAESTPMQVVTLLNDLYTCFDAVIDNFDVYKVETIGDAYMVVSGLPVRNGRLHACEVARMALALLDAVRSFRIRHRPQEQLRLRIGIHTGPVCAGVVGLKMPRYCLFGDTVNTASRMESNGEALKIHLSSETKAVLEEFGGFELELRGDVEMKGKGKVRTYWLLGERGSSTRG


Legend:
rat NPRA = molecular target: T1, rat NPRA; assay: cell-based or functional assay
human NPRA = molecular target: T2, human NPRA; assay: cell-based or functional assay

Binder | cGMP Assay (EC50, pM) w/BSA (rat NPRA) [pM] | cGMP Assay (EC50, pM) w/Casein (rat NPRA) [pM] | cGMP Assay (EC50, pM) w/BSA (human NPRA) [pM] | cGMP Assay (EC50, pM) w/Casein (human NPRA) [pM]
XEKEKEKGSXRRSSCFGGRIDRIGAQSGLGCNSFRY (HOOC-(CH2)18-CO-(γGlu)-EKEKEKGS-4Pal-RRSS[CFGGRIDRIGAQSGLGC]NSFRY-NH2; disulfide linkage between the bracketed Cys) [Example 11] | 24700 | 242 | 24400 | 1020
{C20 diacid}-[γGlu]EKEKEKGS[4Pal]RRSSCFGGRIDRIGA[4Pal]SGLGCNSFRY-NH2 (disulfide 15-31; SMILES CC[C@H](C)[C@@H]1NC(=O)[C@H](CCCNC(=N)N)NC(=O)[C@H](CC(=O)O)NC(=O)[C@H]([C@@H](C)CC)NC(=O)[C@H](CCCNC(=N)N)NC(=O)CNC(=O)CNC(=O)[C@H](Cc2ccccc2)NC(=O)[C@@H](NC(=O)[C@H](CO)NC(=O)[C@H](CO)NC(=O)[C@H](CCCNC(=N)N)NC(=O)[C@H](CCCNC(=N)N)NC(=O)[C@H](Cc2ccncc2)NC(=O)[C@H](CO)NC(=O)CNC(=O)[C@H](CCCCN)NC(=O)[C@H](CCC(=O)O)NC(=O)[C@H](CCCCN)NC(=O)[C@H](CCC(=O)O)NC(=O)[C@H](CCCCN)NC(=O)[C@H](CCC(=O)O)NC(=O)CC[C@H](NC(=O)CCCCCCCCCCCCCCCCCCC(=O)O)C(=O)O)CSSC[C@@H](C(=O)N[C@@H](CC(N)=O)C(=O)N[C@@H](CO)C(=O)N[C@@H](Cc2ccccc2)C(=O)N[C@@H](CCCNC(=N)N)C(=O)N[C@@H](Cc2ccc(O)cc2)C(N)=O)NC(=O)CNC(=O)[C@H](CC(C)C)NC(=O)CNC(=O)[C@H](CO)NC(=O)[C@H](Cc2ccncc2)NC(=O)[C@H](C)NC(=O)CNC1=O) [Example 14] | 37800 | 1170 | 27700 | 685
{C20 diacid}-[γGlu]EKEKEKGS[4Pal]RRSSCFGGRIDRIGAQSGLGCNSFR[4Pal]-NH2 (disulfide 15-31; SMILES CC[C@H](C)[C@@H]1NC(=O)[C@H](CCCNC(=N)N)NC(=O)[C@H](CC(=O)O)NC(=O)[C@H]([C@@H](C)CC)NC(=O)[C@H](CCCNC(=N)N)NC(=O)CNC(=O)CNC(=O)[C@H](Cc2ccccc2)NC(=O)[C@@H](NC(=O)[C@H](CO)NC(=O)[C@H](CO)NC(=O)[C@H](CCCNC(=N)N)NC(=O)[C@H](CCCNC(=N)N)NC(=O)[C@H](Cc2ccncc2)NC(=O)[C@H](CO)NC(=O)CNC(=O)[C@H](CCCCN)NC(=O)[C@H](CCC(=O)O)NC(=O)[C@H](CCCCN)NC(=O)[C@H](CCC(=O)O)NC(=O)[C@H](CCCCN)NC(=O)[C@H](CCC(=O)O)NC(=O)CC[C@H](NC(=O)CCCCCCCCCCCCCCCCCCC(=O)O)C(=O)O)CSSC[C@@H](C(=O)N[C@@H](CC(N)=O)C(=O)N[C@@H](CO)C(=O)N[C@@H](Cc2ccccc2)C(=O)N[C@@H](CCCNC(=N)N)C(=O)N[C@@H](Cc2ccncc2)C(N)=O)NC(=O)CNC(=O)[C@H](CC(C)C)NC(=O)CNC(=O)[C@H](CO)NC(=O)[C@H](CCC(N)=O)NC(=O)[C@H](C)NC(=O)CNC1=O) [Example 15] | 32600 | 254 | 57300 | 912
{C20 diacid}-[γGlu]EKEKEKGSLRRSSCFGGRIDRIGA[4Pal]SGLGCNSFRY-NH2 (disulfide 15-31; SMILES CC[C@H](C)[C@@H]1NC(=O)[C@H](CCCNC(=N)N)NC(=O)[C@H](CC(=O)O)NC(=O)[C@H]([C@@H](C)CC)NC(=O)[C@H](CCCNC(=N)N)NC(=O)CNC(=O)CNC(=O)[C@H](Cc2ccccc2)NC(=O)[C@@H](NC(=O)[C@H](CO)NC(=O)[C@H](CO)NC(=O)[C@H](CCCNC(=N)N)NC(=O)[C@H](CCCNC(=N)N)NC(=O)[C@H](CC(C)C)NC(=O)[C@H](CO)NC(=O)CNC(=O)[C@H](CCCCN)NC(=O)[C@H](CCC(=O)O)NC(=O)[C@H](CCCCN)NC(=O)[C@H](CCC(=O)O)NC(=O)[C@H](CCCCN)NC(=O)[C@H](CCC(=O)O)NC(=O)CC[C@H](NC(=O)CCCCCCCCCCCCCCCCCCC(=O)O)C(=O)O)CSSC[C@@H](C(=O)N[C@@H](CC(N)=O)C(=O)N[C@@H](CO)C(=O)N[C@@H](Cc2ccccc2)C(=O)N[C@@H](CCCNC(=N)N)C(=O)N[C@@H](Cc2ccc(O)cc2)C(N)=O)NC(=O)CNC(=O)[C@H](CC(C)C)NC(=O)CNC(=O)[C@H](CO)NC(=O)[C@H](Cc2ccncc2)NC(=O)[C@H](C)NC(=O)CNC1=O) [Example 10] | 88400 | 501 | 64200 | 1310
{C20 diacid}-[γGlu]EKEKEKGSLRRSSCF[4Pal]GRIDRIGAQSGLGCNSFRY-NH2 (disulfide 15-31; SMILES CC[C@H](C)[C@@H]1NC(=O)[C@H](CCCNC(=N)N)NC(=O)[C@H](CC(=O)O)NC(=O)[C@H]([C@@H](C)CC)NC(=O)[C@H](CCCNC(=N)N)NC(=O)CNC(=O)[C@H](Cc2ccncc2)NC(=O)[C@H](Cc2ccccc2)NC(=O)[C@@H](NC(=O)[C@H](CO)NC(=O)[C@H](CO)NC(=O)[C@H](CCCNC(=N)N)NC(=O)[C@H](CCCNC(=N)N)NC(=O)[C@H](CC(C)C)NC(=O)[C@H](CO)NC(=O)CNC(=O)[C@H](CCCCN)NC(=O)[C@H](CCC(=O)O)NC(=O)[C@H](CCCCN)NC(=O)[C@H](CCC(=O)O)NC(=O)[C@H](CCCCN)NC(=O)[C@H](CCC(=O)O)NC(=O)CC[C@H](NC(=O)CCCCCCCCCCCCCCCCCCC(=O)O)C(=O)O)CSSC[C@@H](C(=O)N[C@@H](CC(N)=O)C(=O)N[C@@H](CO)C(=O)N[C@@H](Cc2ccccc2)C(=O)N[C@@H](CCCNC(=N)N)C(=O)N[C@@H](Cc2ccc(O)cc2)C(N)=O)NC(=O)CNC(=O)[C@H](CC(C)C)NC(=O)CNC(=O)[C@H](CO)NC(=O)[C@H](CCC(N)=O)NC(=O)[C@H](C)NC(=O)CNC1=O) [Example 13] | 24000 | 241 | 145000 | 1920
{C20 diacid}-[γGlu]EKEKEKGSLRRSSCFGGRIDRIGA[4Pal]SGLGCNSFR[4Pal]-NH2 (disulfide 15-31; SMILES CC[C@H](C)[C@@H]1NC(=O)[C@H](CCCNC(=N)N)NC(=O)[C@H](CC(=O)O)NC(=O)[C@H]([C@@H](C)CC)NC(=O)[C@H](CCCNC(=N)N)NC(=O)CNC(=O)CNC(=O)[C@H](Cc2ccccc2)NC(=O)[C@@H](NC(=O)[C@H](CO)NC(=O)[C@H](CO)NC(=O)[C@H](CCCNC(=N)N)NC(=O)[C@H](CCCNC(=N)N)NC(=O)[C@H](CC(C)C)NC(=O)[C@H](CO)NC(=O)CNC(=O)[C@H](CCCCN)NC(=O)[C@H](CCC(=O)O)NC(=O)[C@H](CCCCN)NC(=O)[C@H](CCC(=O)O)NC(=O)[C@H](CCCCN)NC(=O)[C@H](CCC(=O)O)NC(=O)CC[C@H](NC(=O)CCCCCCCCCCCCCCCCCCC(=O)O)C(=O)O)CSSC[C@@H](C(=O)N[C@@H](CC(N)=O)C(=O)N[C@@H](CO)C(=O)N[C@@H](Cc2ccccc2)C(=O)N[C@@H](CCCNC(=N)N)C(=O)N[C@@H](Cc2ccncc2)C(N)=O)NC(=O)CNC(=O)[C@H](CC(C)C)NC(=O)CNC(=O)[C@H](CO)NC(=O)[C@H](Cc2ccncc2)NC(=O)[C@H](C)NC(=O)CNC1=O) [Example 12] | 85500 | 670 | 109000 | 1520
